Results: the supplement of paper PMC10724198
± gives the standard deviation of the averaged measurements.

Assays:
Saccharomyces cerevisiae [1] = test: protein stability index of tFT-peptide fusion (C-terminal peptide) (PSI (0-1 scale)); higher = more stable (slower turnover)
Protocol: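 MPS profiling in S. cerevisiae of the tFT-X12 degron library: putative degron peptides plus stable controls, 12 aa, fused to the C-terminus of a sfGFP-mCherry timer. Cells are FACS-sorted into 8 mCherry/sfGFP bins and deep-sequenced. PSI runs from 0 (unstable) to 1 (stable). Backgrounds are wild type, das1Δ and doa10Δ at 30 °C, and wild type, das1Δ, cdc34-1 and cdc53-1 at 37 °C; 2-3 technical replicates each.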

Saccharomyces cerevisiae [2] = test: as above; conditions: genetic background: wild type; temperature: 30 C
[3] = genetic background: cdc34-1, temperature: 37 C
[4] = genetic background: cdc53-1, temperature: 37 C
[5] = genetic background: das1 deletion, temperature: 30 C
[6] = genetic background: das1 deletion, temperature: 37 C
[7] = genetic background: doa10 deletion, temperature: 30 C
[8] = genetic background: wild type, temperature: 30 C
[9] = genetic background: wild type, temperature: 37 C
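Also: PSI is a weighted mean of sequencing reads over stability bins, variants kept only with over 10 reads, mCherry proximal and sfGFP distal, peptide attached via GGGS linker.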

| Sequence | protein stability index (Saccharomyces cerevisiae [1]; [3]) | protein stability index (Saccharomyces cerevisiae [1]; [4]) | protein stability index (Saccharomyces cerevisiae [1]; [5]) | protein stability index (Saccharomyces cerevisiae [1]; [6]) | protein stability index (Saccharomyces cerevisiae [1]; [7]) | protein stability index (Saccharomyces cerevisiae [1]; [8]) | protein stability index (Saccharomyces cerevisiae [1]; [9]) | protein stability index (Saccharomyces cerevisiae [2]) |
| --- | --- | --- | --- | --- | --- | --- | --- | --- |
| VFRHFYTFLALC | 0.338 ± 0.043 | 0.414 ± 0.013 | 0.472 ± 0.014 | 0.5932 ± 0.0029 | 0.111 ± 0.0013 | 0.0988 ± 0.017 | 0.132 ± 0.018 | 0.16 ± 0.0087 |
| VFTGYSAFLLLC | 0.325 ± 0.011 | 0.578 ± 0.025 | 0.487 ± 0.025 | 0.6366 ± 0.0041 | 0.0796 ± 0.016 | 0.0748 ± 0.014 | 0.0721 ± 0.0049 | 0.144 ± 0.011 |
| VGASLVVIAIGV | 0.5122 ± 0.0012 | 0.5401 ± 0.0048 | 0.377 ± 0.034 | 0.5445 ± 0.0033 | 0.3442 ± 0.0029 | 0.387 ± 0.012 | 0.5181 ± 0.0048 | 0.466 ± 0.032 |
| VGKGAGVRDGSR | 0.693 ± 0.068 | 0.751 ± 0.019 | 0.623 ± 0.0077 | 0.7598 ± 0.0072 | 0.651 ± 0.017 | 0.645 ± 0.011 | 0.713 ± 0.016 | 0.707 ± 0.026 |
| VGLLFGWVWSLW | 0.644 ± 0.02 | 0.72401 ± 0.00029 | 0.56 ± 0.026 | 0.6999 ± 0.0055 | 0.5556 ± 0.0007 | 0.545 ± 0.0096 | 0.674 ± 0.015 | 0.485 ± 0.021 |
| VGLWFLCSLAFS | 0.444 ± 0.0079 | 0.478 ± 0.015 | 0.34 ± 0.037 | 0.5344 ± 0.0014 | 0.308 ± 0.015 | 0.346 ± 0.023 | 0.495 ± 0.007 | 0.401 ± 0.006 |
| VGYSLFTFLFCA | 0.579 ± 0.014 | 0.6313 ± 0.0052 | 0.481 ± 0.03 | 0.6315 ± 0.0016 | 0.303 ± 0.011 | 0.335 ± 0.017 | 0.51 ± 0.027 | 0.432 ± 0.0057 |
| VIQKKKKNKITS | 0.617 ± 0.004 | 0.729 ± 0.014 | 0.65 ± 0.022 | 0.7265 ± 0.0018 | 0.197 ± 0.011 | 0.238 ± 0.013 | 0.408 ± 0.016 | 0.346 ± 0.033 |
| VIVIQGFVFVLG | 0.2898 ± 0.0021 | 0.426 ± 0.033 | 0.267 ± 0.033 | 0.482 ± 0.0059 | 0.234 ± 0.0035 | 0.248 ± 0.035 | 0.421 ± 0.0092 | 0.279 ± 0.073 |
| VLFSVWFFLVLV | 0.0557 ± 0.017 | 0.0354 ± 0.0069 | 0.122 ± 0.032 | 0.134 ± 0.0075 | 0.241 ± 0.015 | 0.103 ± 0.035 | 0.127 ± 0.04 | 0.117 ± 0.017 |
| VLVLLVCVAALV | 0.1393 ± 0.00032 | 0.222 ± 0.0053 | 0.163 ± 0.023 | 0.295 ± 0.017 | 0.1463 ± 0.00088 | 0.163 ± 0.025 | 0.244 ± 0.014 | 0.239 ± 0.0026 |
| VLVRVIYLLVSG | 0.276 ± 0.007 | 0.373 ± 0.013 | 0.23 ± 0.038 | 0.469 ± 0.0053 | 0.178 ± 0.026 | 0.234 ± 0.029 | 0.404 ± 0.017 | 0.347 ± 0.02 |
| VLVWLRLRVGLR | 0.212 ± 0.025 | 0.322 ± 0.016 | 0.218 ± 0.045 | 0.381 ± 0.0098 | 0.199 ± 0.0058 | 0.213 ± 0.021 | 0.3468 ± 0.0019 | 0.3002 ± 0.00052 |
| VLYCRSCFLRVS | 0.543 ± 0.021 | 0.584 ± 0.015 | 0.436 ± 0.024 | 0.6292 ± 0.0028 | 0.1667 ± 0.0015 | 0.161 ± 0.0061 | 0.362 ± 0.023 | 0.281 ± 0.021 |
| VMIFYVLGRVWD | 0.428 ± 0.0048 | 0.5209 ± 0.0028 | 0.293 ± 0.056 | 0.594 ± 0.025 | 0.27 ± 0.0079 | 0.314 ± 0.033 | 0.581 ± 0.082 | 0.455 ± 0.0091 |
| VNFVLTLYPYLV | 0.512 ± 0.024 | 0.577 ± 0.019 | 0.507 ± 0.024 | 0.603 ± 0.02 | 0.275 ± 0.016 | 0.278 ± 0.02 | 0.4472 ± 0.00073 | 0.378 ± 0.014 |
| VPPLPPPGPPTF | 0.705 ± 0.0084 | 0.7583 ± 0.0011 | 0.667 ± 0.012 | 0.733 ± 0.014 | 0.683 ± 0.029 | 0.6765 ± 0.0056 | 0.708 ± 0.011 | 0.699 ± 0.015 |
| VQLLTRLKTPHP | 0.6608 ± 0.0013 | 0.7443 ± 0.0035 | 0.656 ± 0.016 | 0.719 ± 0.015 | 0.636 ± 0.021 | 0.65 ± 0.024 | 0.716 ± 0.021 | 0.733 ± 0.026 |
| VRDQGWILNMLL | 0.7266 ± 0.007 | 0.771 ± 0.024 | 0.651 ± 0.032 | 0.7546 ± 0.0011 | 0.3707 ± 0.0019 | 0.422 ± 0.028 | 0.639 ± 0.023 | 0.485 ± 0.016 |
| VRICVVLRVCWW | 0.0855 ± 0.0017 | 0.139 ± 0.00094 | 0.115 ± 0.034 | 0.217 ± 0.0071 | 0.117 ± 0.034 | 0.12 ± 0.024 | 0.18 ± 0.0089 | 0.256 ± 0.092 |

| Sequence | protein stability index (Saccharomyces cerevisiae [1]; [3]) | protein stability index (Saccharomyces cerevisiae [1]; [4]) | protein stability index (Saccharomyces cerevisiae [1]; [5]) | protein stability index (Saccharomyces cerevisiae [1]; [6]) | protein stability index (Saccharomyces cerevisiae [1]; [7]) | protein stability index (Saccharomyces cerevisiae [1]; [8]) | protein stability index (Saccharomyces cerevisiae [1]; [9]) | protein stability index (Saccharomyces cerevisiae [2]) |
| --- | --- | --- | --- | --- | --- | --- | --- | --- |
| VRINLLFVWFSR | 0.407 ± 0.0067 | 0.472 ± 0.028 | 0.331 ± 0.044 | 0.491 ± 0.012 | 0.359 ± 0.016 | 0.334 ± 0.04 | 0.464 ± 0.033 | 0.396 ± 0.026 |
| VRLSQVNRLICT | 0.554 ± 0.022 | 0.566 ± 0.065 | 0.437 ± 0.024 | 0.585 ± 0.021 | 0.394 ± 0.019 | 0.426 ± 0.0098 | 0.573 ± 0.017 | 0.524 ± 0.052 |
| VRRGAVWCCLCG | 0.666 ± 0.0079 | 0.73 ± 0.0094 | 0.623 ± 0.012 | 0.748 ± 0.004 | 0.368 ± 0.017 | 0.405 ± 0.014 | 0.633 ± 0.0059 | 0.474 ± 0.011 |
| VRVLAALVLCVV | 0.159 ± 0.029 | 0.306 ± 0.021 | 0.217 ± 0.019 | 0.3799 ± 0.00079 | 0.156 ± 0.0081 | 0.189 ± 0.011 | 0.322 ± 0.011 | 0.312 ± 0.0089 |
| VRYCFFWVRAVV | 0.286 ± 0.027 | 0.335 ± 0.019 | 0.233 ± 0.04 | 0.4555 ± 0.0013 | 0.173 ± 0.0088 | 0.194 ± 0.022 | 0.3718 ± 0.0019 | 0.278 ± 0.051 |
| VTGYLSTLTMLC | 0.6 ± 0.015 | 0.654 ± 0.0097 | 0.551 ± 0.02 | 0.671 ± 0.023 | 0.231 ± 0.0097 | 0.247 ± 0.03 | 0.5014 ± 0.0011 | 0.3832 ± 0.0015 |
| VTWNFIVYVCCF | 0.164 ± 0.0058 | 0.204 ± 0.0029 | 0.209 ± 0.016 | 0.25776 ± 1.6e-05 | 0.189 ± 0.017 | 0.19 ± 0.014 | 0.219 ± 0.0045 | 0.283 ± 0.011 |
| VVFLWRCRLLLG | 0.276 ± 0.015 | 0.346 ± 0.015 | 0.213 ± 0.034 | 0.416 ± 0.0042 | 0.0938 ± 0.011 | 0.115 ± 0.027 | 0.154 ± 0.0056 | 0.164 ± 0.019 |
| VVFRCSSFFCLV | 0.54 ± 0.0062 | 0.6156 ± 0.006 | 0.524 ± 0.029 | 0.622 ± 0.015 | 0.387 ± 0.033 | 0.405 ± 0.035 | 0.536 ± 0.0083 | 0.4449 ± 0.002 |
| VVIYWFLPIIFA | 0.09487 ± 0.00071 | 0.0751 ± 0.015 | 0.163 ± 0.032 | 0.253 ± 0.018 | 0.266 ± 0.006 | 0.155 ± 0.021 | 0.224 ± 0.013 | 0.23 ± 0.029 |
| VVLGLFCVRMGT | 0.541 ± 0.018 | 0.606 ± 0.019 | 0.454 ± 0.031 | 0.6108 ± 0.0044 | 0.418 ± 0.01 | 0.451 ± 0.02 | 0.5718 ± 0.0034 | 0.522 ± 0.031 |
| VVLVGVAVCRLG | 0.4 ± 0.0065 | 0.47 ± 0.013 | 0.29 ± 0.025 | 0.4888 ± 0.0021 | 0.244 ± 0.01 | 0.277 ± 0.014 | 0.46 ± 0.0018 | 0.368 ± 0.011 |
| VVNFLVFRFFCI | 0.53 ± 0.046 | 0.531 ± 0.015 | 0.481 ± 0.029 | 0.649 ± 0.026 | 0.216 ± 0.016 | 0.217 ± 0.037 | 0.39 ± 0.018 | 0.285 ± 0.06 |
| VVPYPFLTLLNI | 0.417 ± 0.026 | 0.407 ± 0.029 | 0.403 ± 0.041 | 0.539 ± 0.014 | 0.589 ± 0.033 | 0.381 ± 0.012 | 0.492 ± 0.0084 | 0.58 ± 0.12 |
| VVRVSFSFCLSC | 0.476 ± 0.023 | 0.498 ± 0.045 | 0.48 ± 0.029 | 0.459 ± 0.021 | 0.408 ± 0.026 | 0.388 ± 0.029 | 0.425 ± 0.024 | 0.373 ± 0.015 |
| VVSVVVLVNSRG | 0.465 ± 0.029 | 0.501 ± 0.067 | 0.36 ± 0.023 | 0.5405 ± 0.0032 | 0.3414 ± 0.0024 | 0.373 ± 0.024 | 0.518 ± 0.0064 | 0.441 ± 0.017 |
| VVVLLLVVWFCL | 0.29 ± 0.014 | 0.4134 ± 0.0018 | 0.316 ± 0.027 | 0.428 ± 0.027 | 0.283 ± 0.0079 | 0.296 ± 0.025 | 0.391 ± 0.019 | 0.379 ± 0.04 |
| VVVWLFRIKSNV | 0.46 ± 0.012 | 0.586 ± 0.0096 | 0.358 ± 0.059 | 0.576 ± 0.005 | 0.279 ± 0.0084 | 0.318 ± 0.022 | 0.497 ± 0.026 | 0.425 ± 0.025 |
| VWGLWRLCVWGV | 0.3896 ± 0.0011 | 0.479 ± 0.0054 | 0.327 ± 0.036 | 0.5012 ± 0.0017 | 0.274 ± 0.0082 | 0.302 ± 0.025 | 0.477 ± 0.0086 | 0.371 ± 0.057 |
